The results in this text go back to PMC6474325, “PPR Protein BFA2 Is Essential for the Accumulation of the atpH/F Transcript in Chloroplasts”.

The target of series [1] is T1, BFA2 (MBP-BFA2, mature) (Arabidopsis thaliana, UniProt O65567 62-904).
T1 sequence: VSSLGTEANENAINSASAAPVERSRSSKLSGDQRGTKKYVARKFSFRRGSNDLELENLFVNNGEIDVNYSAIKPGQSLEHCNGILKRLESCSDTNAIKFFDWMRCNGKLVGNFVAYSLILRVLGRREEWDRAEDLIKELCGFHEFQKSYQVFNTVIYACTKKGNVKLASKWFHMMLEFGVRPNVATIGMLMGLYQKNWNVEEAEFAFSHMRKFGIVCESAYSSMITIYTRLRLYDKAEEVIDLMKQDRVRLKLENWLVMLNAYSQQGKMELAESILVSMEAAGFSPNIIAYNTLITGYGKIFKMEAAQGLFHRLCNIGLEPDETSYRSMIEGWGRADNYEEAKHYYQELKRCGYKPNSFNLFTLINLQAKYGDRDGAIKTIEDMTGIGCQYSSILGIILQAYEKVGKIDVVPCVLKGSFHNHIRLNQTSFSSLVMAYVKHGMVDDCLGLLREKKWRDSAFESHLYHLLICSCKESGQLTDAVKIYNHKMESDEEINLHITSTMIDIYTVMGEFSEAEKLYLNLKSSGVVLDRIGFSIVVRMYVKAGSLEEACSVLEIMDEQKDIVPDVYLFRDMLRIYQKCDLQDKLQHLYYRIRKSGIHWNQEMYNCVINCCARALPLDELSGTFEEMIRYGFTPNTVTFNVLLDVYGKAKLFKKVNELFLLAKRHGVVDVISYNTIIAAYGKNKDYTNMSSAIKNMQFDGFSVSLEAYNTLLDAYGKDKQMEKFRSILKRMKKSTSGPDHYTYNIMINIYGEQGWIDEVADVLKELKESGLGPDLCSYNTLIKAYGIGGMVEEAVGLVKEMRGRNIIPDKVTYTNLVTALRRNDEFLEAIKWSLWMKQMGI
Put plainly: competition; unlabeled ndhA RNA; 1000-fold excess does not affect complex with labeled atpF sRNA; 10 mM HEPES pH 7.5, 20 mM KCl, 2 mM MgCl2, 1 mM DTT, 5% glycerol, 1 ug yeast tRNA, 20 C, 30 min; 6% native PAGE with 2.5% glycerol. To be noted: protein: recombinant; tags: MBP (pMAL-c5x); label: none; single strand.

In series [2] the target is T1, BFA2 (MBP-BFA2, mature). Put plainly: EMSA; 1 ug tRNA, 2 mM Mg2+; complex detected at protein 3x molar over RNA; 10 mM HEPES pH 7.5, 20 mM KCl, 2 mM MgCl2, 1 mM DTT, 5% glycerol, 1 ug yeast tRNA, 20 C, 30 min; 6% native PAGE with 2.5% glycerol. To be noted: protein: recombinant; tags: MBP (pMAL-c5x); label: 5'-biotin on probe; single strand.

With UUAUGACGAUACUCGGUAGCAUAGAUAUAA (ssRNA) [ndhA 5' end sRNA], the binding result with BFA2 (MBP-BFA2, mature) [1] is reported as “no binding”.
As to UAUAGGCAUUAUUUUUUUUUCU (ssRNA) [atpF sRNA (atpF-atpA intergenic)], in the series with BFA2 (MBP-BFA2, mature) [2], the binding result was “binds”.
